Positions count from the first letter of the chain named.
T1: CEACAM1-his (human)
T1 chain: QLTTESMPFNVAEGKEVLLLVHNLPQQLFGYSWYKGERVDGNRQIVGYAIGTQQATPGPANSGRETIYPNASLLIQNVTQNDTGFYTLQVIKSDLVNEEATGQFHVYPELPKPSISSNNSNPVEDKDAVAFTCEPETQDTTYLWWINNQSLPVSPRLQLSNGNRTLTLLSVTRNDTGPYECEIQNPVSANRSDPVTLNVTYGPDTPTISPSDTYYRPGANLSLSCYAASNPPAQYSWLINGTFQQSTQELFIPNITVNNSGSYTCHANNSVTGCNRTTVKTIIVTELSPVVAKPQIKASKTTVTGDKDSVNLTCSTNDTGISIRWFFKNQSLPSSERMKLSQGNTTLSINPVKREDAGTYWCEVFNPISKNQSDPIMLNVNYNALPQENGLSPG

T2: CEACAM6 (human, UniProt P40199)
T2 chain: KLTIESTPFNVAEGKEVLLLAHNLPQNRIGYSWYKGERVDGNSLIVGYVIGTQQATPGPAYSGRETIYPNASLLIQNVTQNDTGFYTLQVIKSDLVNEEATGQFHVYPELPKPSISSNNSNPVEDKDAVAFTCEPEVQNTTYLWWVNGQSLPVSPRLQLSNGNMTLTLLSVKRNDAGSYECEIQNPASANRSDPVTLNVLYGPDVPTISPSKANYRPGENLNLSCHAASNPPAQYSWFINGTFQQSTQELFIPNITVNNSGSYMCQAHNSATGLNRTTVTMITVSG

T3: CEACAM5 (human, UniProt P06731)
T3 chain: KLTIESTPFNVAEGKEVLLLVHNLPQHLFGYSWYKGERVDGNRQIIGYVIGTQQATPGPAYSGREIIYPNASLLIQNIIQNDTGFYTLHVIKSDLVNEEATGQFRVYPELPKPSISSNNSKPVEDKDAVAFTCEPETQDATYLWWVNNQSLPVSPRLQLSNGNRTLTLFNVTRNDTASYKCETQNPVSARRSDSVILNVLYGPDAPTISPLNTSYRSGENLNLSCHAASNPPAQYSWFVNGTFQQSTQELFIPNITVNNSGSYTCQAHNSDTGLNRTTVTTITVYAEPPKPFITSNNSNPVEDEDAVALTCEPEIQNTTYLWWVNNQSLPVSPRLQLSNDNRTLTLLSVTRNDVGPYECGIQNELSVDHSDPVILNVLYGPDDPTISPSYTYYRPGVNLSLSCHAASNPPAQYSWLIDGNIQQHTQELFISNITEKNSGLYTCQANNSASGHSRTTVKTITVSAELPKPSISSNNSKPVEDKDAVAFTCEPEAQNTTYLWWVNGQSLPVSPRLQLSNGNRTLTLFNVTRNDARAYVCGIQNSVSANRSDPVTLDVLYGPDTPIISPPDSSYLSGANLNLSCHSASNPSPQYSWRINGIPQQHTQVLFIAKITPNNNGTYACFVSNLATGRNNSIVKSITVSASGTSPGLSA

T4: CEACAM3 (human, UniProt P40198)
T4 chain: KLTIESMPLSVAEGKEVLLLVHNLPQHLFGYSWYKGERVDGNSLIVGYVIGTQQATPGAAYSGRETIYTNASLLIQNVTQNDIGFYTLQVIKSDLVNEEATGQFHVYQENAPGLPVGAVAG

B1: h9D12.G4.H0bL7 (antibody, V domains shown)
VH: QVQLVQSGAEVKKPGASVKVSCKASGFNIKDTYMHWVRQAPGQGLEWMGRIDLASGDSKYDPKFQGRVTMTRDTSTSTVYMELSSLRSEDTAVYYCARAHFGGGNWYFDVWGQGTTVTVSS
VL: DIQLTQSPSFLSASVGDRVTITCSASSSVSYMHWYQQKPGQAPKPWIYEISKLASGVPSRFSGSGSGTEYTLTISSMQSEDFAVYYCQQWNYPLTFGQGTKLEIK
B2: h2C10.G4.H0aL4 (antibody, V domains shown)
VH: QVQLVQSGAEVKKPGASVKVSCKASGFAFTNYLIEWVRQAPGQGLEWMGVLNPGSGATNYNEKFKGRVTMTRDTSISTAYMELSRLRSDDTAVYYCARGIYGGYFAMDYWGQGTLVTVSS
VL: DIQMTQSPSSLSASVGDRVTITCRASQDITTYLNWYQQKPGGAPKLLIYYTSRLHSGVPSRFSGSGSGTDFTLTISSLQPEDIATYYCQQGNTLPRTFGGGTKLEIK
B3: h2C10.G4.H0aL2 (antibody, V domains shown)
VH: B2 VH
VL: B2 VL with P8T, F71Y
B4: h4D10.G4.H4L2 (antibody, V domains shown)
VH: QVQLVQSGAEVKKPGASVKVSCKASGYTFSSYVIHWVRQAPGQGLEWMGYFNPYNNGTNYNENFKGRVTMTADTSTSTVYMELSSLRSEDTAVYYCARYYYASGSLYFDYWGQGTTVTVSS
VL: DIQMTQSPSTLSASVGDRVTITCSASSSVSYMHWYQQKPGKAPKPLIYEISKLASGVPSRFSGSGSGTEFTLTISSLQPDDAATYYCQQWNYPLITFGGGTKVEIK
B5: 9D12 (antibody, V domains shown)
VH: EVQLQQSGAELVKPGASVKLSCTASGFNIKDTYMHWVKQRPEQGLEWIGRIDLASGDSKYDPKFQGKATITADTSSNTAYLQFSSLTSEDTAVYYCARAHFGGGNWYFDVWGAGTTVTVSS
VL: EIVLTQSPAITAASLGQKVTITCSASSSVSYMHWYQQKSGTSPKPWIYEISKLASGVPARFSGSGSGTSYSLTISSMEAEDAAIYYCQQWNYPLTFGAGTKLELK
B6: 4D10 (antibody, V domains shown)
VH: EVQLQQSGPELVKPGASVKMSCKASGYTFSSYVIHWVRQKPGQGLEWIGYFNPYNNGTNYNENFKGKATLTSGKSSSTAYMELSSLTSEDSAVYYCARYYYASGSLYFDYWGQGTTLTVSS
VL: EIVLTQSPAIATASLGQKVTITCSASSSVSYMHWYQQKSGTSPKPWIYEISKLASGVPTRFSGSGSGTSYSLTISSMEAEDAAIYYCQQWNYPLITFGAGTKLELK
B7: 2C10 (antibody, V domains shown)
VH: QVQLQQSGAELVRPGTSVKVSCKASGFAFTNYLIEWVKQRPGQGLEWIGVLNPGSGATNYNEKFKGKATLTADKSSSTAYMQLSSLTSDDSAVYFCARGIYGGYFAMDYWGQGTSVTVSS
VL: DIQMTQTTSSLSASLGDRVTISCRASQDITTYLNWYQQRPDGTVKLLIYYTSRLHSGVPSRFSGSGSGTEYSLTISNLEQEDIATYFCQQGNTLPRTFGGGTKLEIR
B8: 7D4 (antibody, V domains shown)
VH: EVQLQQSGAELVRPGASVKLSCTASGFNLKDTYMHWVKQRPEQGLEWIGRIDPSDGDTKYGPKFQDKTTITADTSSNTAYLQLSSLTSEDAAVYYCARAHFGGGGWYFDVWGAGTTVTVSS
VL: B5 VL with S30G, S75R, S76N

Target: T1, CEACAM1-his
Assay: BLI

Binder	Kd
B1	3.68 nM
B2	1.83 nM
B3	0.85 nM
B4	1.7 nM

Target: T1, CEACAM1-his
Assay: BLI
Remark: another data set of the same source

Binder	Kd
B1	3.68 nM
B2	1.83 nM
B3	0.85 nM
B4	1.7 nM

Target: T2, CEACAM6
Assay: BLI

Binder	binding result
B5	no binding
B6	no binding
B7	no binding
B8	no binding

Target: T3, CEACAM5
Assay: BLI

Binder	binding result
B6	no binding

Target: T1, CEACAM1-his
Assay: BLI
Remark: another data set of the same source

Binder	Kd
B5	2.9 nM
B7	0.955 nM
B8	6.97 nM

Target: T1, CEACAM1-his
Assay: BLI
Remark: another data set of the same source

Binder	Kd
B4	2.65 nM

Target: T4, CEACAM3
Assay: BLI

Binder	binding result
B6	no binding
B7	no binding

Each binder was assayed against CEACAM1 (cell surface) (human) (assay: FACS, HepG2).
Sequence of CEACAM1 (cell surface) (human) (chain, as listed by the source): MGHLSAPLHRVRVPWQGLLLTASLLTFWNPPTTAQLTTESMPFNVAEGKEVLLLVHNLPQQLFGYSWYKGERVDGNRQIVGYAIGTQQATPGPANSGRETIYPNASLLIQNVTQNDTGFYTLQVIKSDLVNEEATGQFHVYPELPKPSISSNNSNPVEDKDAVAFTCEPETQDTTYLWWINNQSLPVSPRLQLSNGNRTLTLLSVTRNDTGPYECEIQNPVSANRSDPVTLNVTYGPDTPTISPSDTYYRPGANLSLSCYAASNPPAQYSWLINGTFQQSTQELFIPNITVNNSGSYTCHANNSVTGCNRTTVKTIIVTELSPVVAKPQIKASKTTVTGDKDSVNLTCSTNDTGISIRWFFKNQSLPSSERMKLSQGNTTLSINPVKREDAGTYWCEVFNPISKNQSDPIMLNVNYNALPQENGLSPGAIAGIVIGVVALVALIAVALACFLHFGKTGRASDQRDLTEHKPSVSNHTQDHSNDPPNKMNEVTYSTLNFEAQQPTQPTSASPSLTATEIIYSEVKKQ

Binder	EC50
B1	0.0974 µg/mL
B2	0.0491 µg/mL
B3	0.0684 µg/mL
B4	0.039 µg/mL

These binders were tested against CEACAM1 (cell surface) (human) (assay: FACS, BxPC-3).

Binder	EC50
B1	0.0723 µg/mL
B2	0.031 µg/mL
B3	0.0464 µg/mL
B4	0.0263 µg/mL

The binders below were run against CEACAM1 (cell surface) (human) (assay: FACS, Raji-CEACAM1).

Binder	EC50
B2	0.0862 µg/mL
B3	0.0746 µg/mL
B4	0.0699 µg/mL

From patent US20260297187 (published 2026)
